Assay: label from the status in PepcDB records

| Sequence | protein production |
| --- | --- |
| MALRLAVPAMTAQLPPGVTHVDCSTLDMPNAYVVVDDNETTLVDAGWPGDEQTVRDGLHTAGVEPGDIDRVLVTHYDADHVGTLARLTPALDAPVYVHERDAPYVAGDRLPPWTARNGIGALHRLYYRRLDLPDLPIRAVVDGDDIGGFHAYHTPGHTPGHVAYVHEDLSVAFLGDLAYGLGDRLKPTGWLTSSDAAAVESSVRSLCRRAPAFEYACPGHGPPLPDGDDRLAEALP | failed |
| MSALDCPAGTVLFRAGQDCPGFLRLDEGSIRVTLTAANGREVVLYRVRPGDVCLQTFACLTEGRSYSAEGVAETRVRGHLMSHADFRTALARDEAFRTEVMQAVARRFADFEHLVEDVALTGFDTRLARVLLRLAKGDTVAATHEALAAETASGRAFVSRRLAEFARQGLVELARGRVTLCDRSGLERIAAEER | not failed |
| MVDTNHKIAFCIDSDGCAMDTMTYKHQLFFGPIAADIFGISEQERTSFLKEWDRVNLYSRTRGVNRFVGLVMGLEFAGVEHIDKLKEWVETTDSLSNNSLELALANDFSRDLEKALEWSNEVNRQIKNYEGDSLAFSGVLESLERLSQFGNVYVVSSANKEAVWQEWEEQGLLKYVDDIYCQDRGKKEDVIATLIASGYCRETILMVGDSLGDLAAAEQNGIAFYPVLVGKEVKSWEILREDIGEAFAKGQFEQQRQKESINTFWANLDN | failed |
| MSIMKDPNHSPHSGGMLLGFIGVAIFSQTLPFTRMAVAELDATFVALGRAVIAAALALALLAMRGALASGRRPRGGQWLRLAVTALGVVVGFPVFSSLAMREVPSGHGAIVIGLLPLATAVFAAWFGNERPSLGFWLSALAGSALVVAFALWQGAGGLQHADWYLFLAVVLGALGYAEGGKLSRELGGLETISWALVVSLPVLAPVVAWLGLEHAASIAAASPRAWLGMAYVSVFSMFIGFLFWYAGLAKGGVARVGQIQLLQPFLTLAGGALILAEPLDAATVAFAVAVIAVVALGRRAAVRNTAPAMPLASAAEEAPPILPGRLH | failed |
| MKCNDKLAPFEVFDHVVNKKLSFRHVTMDDVDMLHSWMHEEHVIPYWKLNIPLVDYKKHLQTFLNDDHQTLMVGAINGVPMSYWESYWVKEDIIANYYPFEEHDQGIHLLIGPQEYLGQGLIYPLLLAIMQQKFQEPDTNTIVAEPDRRNKKMIHVFKKCGFQPVKEVELPDKIGLLMKCEQNVFEKRWSDWKMNKF | not failed |
| SSKVIIPKIVGHRGVGKEGLAPENTLRSFVLCMERNIPYIETDLRVCKTGEIVLFHGTPEGTIPFYKDGTSRIGDLSLEELKRLDVGGGHTIPSLEELFVAIEEQKFNLKLNLELKGEEWKRKESGDHQRLLLLVEKYHMQERVDYCSFHHEALAHLKALCPDVKITYLFNYMGQPTPLDFVEQACYGDANGVSMLFHYLTKEQVCTAHEKGLSVTVWMPWIFDDSEEDWKKCLELQVDLICSNYPFGLMNFLSNISE | not failed |
| MNLDKVNKYIKDFEKTIKKPKINFDKSKFYVGVDLGTANIVITILDKDGKPVAGVTQRSRVVRDGIVVDFMEAIEIVRKLKENLEKKLGIEITEGYTAIPPGVEQGSVRAIVNVIESAGIDVLKVVDEPTAASYVLGITDGVVVDLGGGTTGISILEKGKVIFVADEPTGGTHMTLVLAGSYGIDFETAEDIKTDKKKEKEVFVQITPVLQKMAAIVKKYIKDYKVKDVFLVGGACSFDGSESIFERELGLNIYKPYMPVYITPLGIALAGMKSLEHHHHHH | not failed |
| MLACAIALRLAAAVAAPVDSPTVDVAPPAPAEVAPPGPGRTAAPDLSAPPPPPADRPGPWRVYGAAAAGAAASDVLFAGIFAIGMVQLFGDLWDGEASADAGGLTLALVGLGGFLAVTPAVTVWAAQRVAGRERTAAAYWACFGVRLLGFAAANAFPAATLATELVLAPWVVSRIVMSGAPAATPLRPEVPAPAGADGPATRARPLRDPALAWR | failed |
| MVFIWSLIFIVILSVVFTTNIKKNYKGWYALASFISILVSIYEVMRIVSHPKLNGVILSIEQAFMKGNVAIAFFILVMFAGALSTKQVIGKKLMSIRAELAILGSILILPHGIIYFVRFLIIKLPKILNGKANATLYLIYISIGIIAFIIMIPLFITSFKSVRKRLGGFRWKKLHRWSYVFYCLIYLHIILALLNGKINFIKIILYTFIFMVYTVMKFIKHRNIKLRRKS | failed |
| MLVMIDTKRPPVYIDSQVGLNTFFLIRGRYPSLNLFVSFITTVKTLGNNVSRTHGDDAESDRVSNVDENNEAVDEQDNIEDDKTDEDEKEGDNEDGDGYDDYQGDDESMGGSTLDPTIDGSESSDEDCDYNKWNDVIVEEYGMLRRTSFSHQGNSVVCWQSVRTQVSVYLTEITFLTRVTVHQL | failed |
| MATIRKLRGRWQAQVRRRGVPPRAKSFDTKTAAERWARDLEAEADRSGWVADTRAAEKTTLGELLSRYANEVTPAKRGAVSEKARINSIVRCPISHRTLAKLTSSDVAGYRDERLKTVAPATVVRELNTISHAIEVATREWGLWVPRNPVKLVRRPPVPRGRTRRLKEGEEQRLLDACDRGRTPLLKPLIILAIETGMRRGELLDLRWEHIDLKRGVAHLPLTKNGDSRDVPLSCRAVQTLQELRSAGVRHDRVFSMTGNSVRLAFEHLRVRAGMSDLHFHDLRHEAISRLFEKGLNIAEVSAISGHRELKMLQRYTHLRAVDLVARLG | failed |
| MTMDGDSSTTDASQLGISADYIGGSHYVIQPHDDTEDSMNDHEDTNGSKESFREQDIYLPIANVARIMKNAIPQTGKIAKDAKECVQECVSEFISFITSEASERCHQEKRKTINGEDILFAMSTLGFDSYVEPLKLYLQKFREAMKGEKGIGGAVSATDGLSEELTEEAFTNQLPAGLITADGQQQNVMVYTTSYQQISGVQQIQFS | failed |
| MTDIFLEGGRALIGTELVETSLSVAGTDIARVDAARGRARLAIDARNLLVLPGIVDLHGDAFERQMMPRAGVDFPIDVALADSDRQAISNGITTVFHATTCSWEPGLRSADNARGLMEAIERQRPQFAADTRFHLRHETYNLDAEAEISRWLAEGRVDLFAFNDHMDGTVADMAKPRKRNRMVERTGLSSEDFDGLVDRVISRAADVPASVSRLAASARAADVRMLSHDDATPAMRREFRELGADIAEFPINEETARAAASHGDAIVYGAPNVVRGGSHTGWTRASDMIAKGLCSVLASDYYYPAQLLAAFRLAADGVLPLTEAWSLVSAEPARAAGLADRGILAEGRRADILLVDDTVPLRPRLVAVISGGKLVHLTDATRLLSAAAAPREAVVAA | failed |
| MGLGSSNRQTDDWNAKLYDERHRFVSAYGEDLIQWLAPKEGECVLDLGCGTGDLTEQIHQLGSRVIGVDVSESMIEQAKGKFPHLDFQVAEATDLSFSEKFDAIFSNAVLHWIKDAEEALTVIYRSLKPGGRFVAEFGGKGNVETIVNTLADTMSQADSRWSKEELPWFFPSIGQYTSLMEQVGFRVTHALHFNRPTLLEDGDGIRHWLAMFAESVLEGKSETERAEIVRFVEAEVKDALFDGTNWWADYKRIRVVGMKQL | failed |
| MNYVKYHLLALLVTLLVAGSFISSEKLSGVVNPFSLTLLRFVIAAFTLLPFVLFKAQYRKGIIRALPRSLIMSVFFSVFFICMFEALKTTTPLNTGTLYTLVPFLTAIFSIFAFKEKITKKRLVVYLIGSAGTSWIIFGGDIEALLAFSLNGGDALFIGGCISMVCYSISMKFLYRGDEIIVIVFCTLFCGALWMLLALLVFNQPLQWHLLKSDLWFHMGYLALFATLASTFIIQKTTVVLGPSKVMAYIYLNPICVAFLMLFIEGKSIPSIVFPGMIISLIATIVLQFQNRNNANK | failed |
| MVQTPSKPITLDEFLKLPETEPASEYIEGKIIQKPMPQGKHSAIQSECVSVINSVVKPQRIARAFLELRCTFGDHSTVPDISVFIWSRIPREENGEIANIFLIAPDWTIEILSPDQSQTKVTKNILHCLKHGTQMGWLIDPDEQTVFVYRPQQETEVFDEPDALVPVPSFASELHLSIKDLFSWLL | not failed |
| SAMAQKEEGHEAAAAEAKKETDLAHVDQVETFVGKEKYYVVKGTDKKGTALYVWVPADKKAKILSKEAKEGISEDKAAKIIKDEGLVSKQKEVHLAREGNVLLWEVTYLDKEGQYSLSYVDFTTGKILKNITP | not failed |
| MFACMGVLVKLAAAFFSNTELVFYRSLVGVITTFLVMRAYGMPLVTEHWKSHCWRGLSGLGGVLLFFYCILQLPLATAISLNNTWPLFLAFLAMILLKEEFSWLLAGALVVGFIGVIFLLRPTLAEGQWYLALIGIGSGLFAGIAHFHVRQLSELGESDWLTVFYFTLVCTVATGLWLTFTAFSAVSLQSLTLALGIGVTATLAQLAISRAHRGSNILIVGVLSYSSVLFAGLMDLFFWDARLPVSAWVGMGLIILGGLLSIRGIPVRNSSIVTLDD | failed |
| MTLLNDIQVWTTACAYDHLIPGRGVGVLLDDGSQVALFRLDDGSVHAVGNVDPFSGAAVMSRGIVGDRGGRAMVQSPILKQAFALDDGSCLDDPRVSVPVYPARVTPEGRIQVARVAV | failed |
| MSDHRPAARPWANRRRTIMSTTTLPGSTVATLTVTTPSDREVQITRIFDASRPMVFDCWTIPELLKGWLHGPDGWRLAICEIDLRVGGATRYVWQHRDGRSMGMSGAYREIVRPARIVATELFDEDWTGGETVGTVVFTEQAGKTLLTQTVLYASQAARDGALGTGMTRGMGESYAQLDAYLISLQDAAKGAA | failed |
| MFFTDWEGPWILTDFALELCMAVFNNARFFSNLSEYDDYLAYEVRREGYEAGYTLKLLTPFLAAAGVKNRDVERIAELSAKFVPDAEKAMATLQERWTPVVISTSYTQYLRRTASMIGVRGELHGTEVDFDSIAVPEGLREELLSIIDVIASLSGEELFRKLDELFSRSEVRKIVESVKAVGAGEKAKIMRGYCESKGIDFPVVVGDSISDYKMFEAARGLGGVAIAFNGNEYALKHADVAIISPTAMSEAKVIELFMERKERAFEVLSAVSIPETEIYIMENSDFGEVLEKSKRMRVRLRGLAGELG | not failed |
| MDTQSLVPLSTLKQGEKAYVVDLELNGLLRRRVLDLGIVPGTSLQCVGTAPAGDPIAYLVRGTVIALRSEDARSIRVNSALV | failed |
| MMEKYNKFDLLWLLVPLSGLIVMGLMAVYSATNGSTESVPLFYKQLSWAVTGAIAASIIYFMDYRVVKDNAYFMYAAGIILLIAVLVFGKKVAGATSWVRFGMFSFQPSELTKMFTIIAMARFLSDDQTDIGNMMDLGKALAIALVPAGLIMLQPDMGTTLTCLSFIVPMIVLAGFDLYYILLGVVPVALMLSGFFNLTILATIAVLSMVMFFLLRKKFYLHQFLVTGGGLLGGLLTWKFTSVILKPHQIKRIQIFLDPTADPRGAGYNALQAKIAIASGGIFGKGFLHGTQTQLRYIPAQWTDFIFCVIAEELGFLGSTLLLLLFAALVLRLVWMVGAIKNRFVELLLAGYASLLLTHVVINIGMTIGVMPVIGVPLPFISYGGSSLVANMMMVGLAMNFSKNRRHIGY | failed |
| MIATIQNEKVIVSISDKGAELQSVRLKEDNTEYLWQGDSTYWGRRAPILFPIVGRLVDNTYYVDDKPYSLTQHGFARDLTFTVKEQSETKITYIVTSNEETLKKYPYEFELLVSYELDGQIVHVTYEVNNPTSKEMFFSIGAHPGFNFPLLEGESFTDYHLSFNGSERLETSVLEGPYLSNKKQLIAESTNELPLTYDLFKNDALIFENMNTDEISIRSHKHNKFVKVEFDGFPFVGVWTPGENAPFLCIEPWYGIADEVNPAKDFKEKKGIQSLQANETFTCRYSITIG | failed |
| MSNPQPEKVRVVVGDDHPLFREGVVRALSLSGSVNVVGEADDGAAALELIKAHLPDVALLDYRMPGMDGAQVAAAVRSYELPTRVLLISAHDEPAIVYQALQQGAAGFLLKDSTRTEIVKAVLDCAKGRDVVAPSLVGGLAGEIRQRAAPVAPVLSAREREVLNRIACGQSIPAIAAELYVAPSTVKTHVQRLYEKLGVSDRAAAVAEAMRQRLLD | not failed |

Reference: a protein production outcome set (Wang et al. 2014)
